Results reported in article PMC13429012 (Structure (London, England : 1993), 2016).
Substitutions are numbered along the chain they refer to. Numbers in names are those of the source. One block for each binder: values may come before it.

Columns and labels:
[1] = biological target: Rvb2(E166K) (Saccharomyces cerevisiae, UniProt Q12464 1-471, E166K); experiment: SEC
[2] = biological target: Rvb2 (Saccharomyces cerevisiae, UniProt Q12464 1-471); experiment: SEC
Rvb2, sequence (Q12464 whole entry): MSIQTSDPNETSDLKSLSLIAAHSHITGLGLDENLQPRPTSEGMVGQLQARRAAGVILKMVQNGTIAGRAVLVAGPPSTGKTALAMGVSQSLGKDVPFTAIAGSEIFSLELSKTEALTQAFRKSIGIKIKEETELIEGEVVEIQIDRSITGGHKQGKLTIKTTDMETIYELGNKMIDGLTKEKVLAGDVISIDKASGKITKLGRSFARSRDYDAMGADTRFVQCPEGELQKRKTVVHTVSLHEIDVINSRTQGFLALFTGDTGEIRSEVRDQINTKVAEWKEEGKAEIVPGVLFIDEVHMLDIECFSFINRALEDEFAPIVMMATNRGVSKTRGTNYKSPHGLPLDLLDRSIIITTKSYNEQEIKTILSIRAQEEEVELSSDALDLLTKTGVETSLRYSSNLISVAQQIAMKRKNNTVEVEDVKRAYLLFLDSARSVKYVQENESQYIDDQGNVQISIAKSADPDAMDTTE

Rvb2(E166K), sequence (Q12464 whole entry E166K): as the sequence (Q12464 whole entry) above, with E166K counted along it

binding result [1]: binds
B1: Rvb1 (natural protein, Saccharomyces cerevisiae, UniProt Q03940 1-463, looked up)
chain: MVAISEVKENPGVNSSNSGAVTRTAAHTHIKGLGLDESGVAKRVEGGFVGQIEAREACGVIVDLIKAKKMSGRAILLAGGPSTGKTALALAISQELGPKVPFCPLVGSELYSVEVKKTETLMENFRRAIGLRIKETKEVYEGEVTELTPEDAENPLGGYGKTISHVIVGLKSAKGTKTLRLDPTIYESIQREKVSIGDVIYIEANTGAVKRVGRSDAYATEFDLETEEYVPLPKGEVHKKKEIVQDVTLHDLDVANARPQGGQDVISMMGQLLKPKKTEITEKLRQEVNKVVAKYIDQGVAELIPGVLFIDEVNMLDIEIFTYLNKALESNIAPVVVLASNRGMTTVRGTEDVISPHGVPPDLIDRLLIVRTLPYDKDEIRTIIERRATVERLQVESSALDLLATMGTETSLRYALQLLAPCGILAQTSNRKEIVVNDVNEAKLLFLDAKRSTKILETSANYL

binding result [2]: binds
B2: Rvb1(E146R) (natural protein, Saccharomyces cerevisiae, UniProt Q03940 1-463, looked up)
chain: B1 chain with E146R

binding result [2]: binds
B3: Rvb1(K161E) (natural protein, Saccharomyces cerevisiae, UniProt Q03940 1-463, looked up)
chain: B1 chain with K161E

binding result [2]: binds
B4: Rvb1(E150K) (natural protein, Saccharomyces cerevisiae, UniProt Q03940 1-463, looked up)
chain: B1 chain with E150K

binding result [2]: binds
B5: Rvb1(R180E) (natural protein, Saccharomyces cerevisiae, UniProt Q03940 1-463, looked up)
chain: B1 chain with R180E
